We go through one molecule from US20220332804A1 (CSL INNOVATION, published 2022).

Holding throughout (experiment): SPR, mAb captured, C2 mutant analyte;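 also: Anti-C2 mAbs captured on goat anti-human IgG Biacore CM5 chips, alanine or serine C2 surface mutants flowed over at 37 °C, double-referenced sensorgrams fitted to a 1:1 binding model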
Background: SPR reads the build-up and loss of mass on a sensor chip optically.

The target in one experiment is T1, human C2 S278A (human, UniProt P06681 21-752).
T1 sequence: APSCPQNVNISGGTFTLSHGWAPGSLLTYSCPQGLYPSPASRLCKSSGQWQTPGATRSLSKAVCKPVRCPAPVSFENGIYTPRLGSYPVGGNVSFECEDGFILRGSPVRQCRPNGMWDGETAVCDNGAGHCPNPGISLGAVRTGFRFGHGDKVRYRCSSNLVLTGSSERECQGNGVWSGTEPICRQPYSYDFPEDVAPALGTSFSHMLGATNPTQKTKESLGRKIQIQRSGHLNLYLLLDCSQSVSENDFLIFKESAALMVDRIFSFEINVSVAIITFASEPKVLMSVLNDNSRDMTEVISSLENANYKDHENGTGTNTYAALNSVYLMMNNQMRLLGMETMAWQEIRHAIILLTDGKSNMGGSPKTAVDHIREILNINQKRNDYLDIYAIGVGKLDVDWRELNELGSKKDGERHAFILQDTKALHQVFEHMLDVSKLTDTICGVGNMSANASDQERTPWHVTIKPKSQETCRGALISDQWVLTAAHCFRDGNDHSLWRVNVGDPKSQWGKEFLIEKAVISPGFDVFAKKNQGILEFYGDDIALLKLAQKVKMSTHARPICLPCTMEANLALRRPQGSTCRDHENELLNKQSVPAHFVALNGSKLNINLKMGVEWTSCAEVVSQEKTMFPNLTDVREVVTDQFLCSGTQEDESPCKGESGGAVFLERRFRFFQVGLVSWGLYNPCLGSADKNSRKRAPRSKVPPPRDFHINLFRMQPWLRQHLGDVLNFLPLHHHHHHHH

The target of a further experiment is T2, human C2 V418A (human, UniProt P06681 21-752).
T2 sequence: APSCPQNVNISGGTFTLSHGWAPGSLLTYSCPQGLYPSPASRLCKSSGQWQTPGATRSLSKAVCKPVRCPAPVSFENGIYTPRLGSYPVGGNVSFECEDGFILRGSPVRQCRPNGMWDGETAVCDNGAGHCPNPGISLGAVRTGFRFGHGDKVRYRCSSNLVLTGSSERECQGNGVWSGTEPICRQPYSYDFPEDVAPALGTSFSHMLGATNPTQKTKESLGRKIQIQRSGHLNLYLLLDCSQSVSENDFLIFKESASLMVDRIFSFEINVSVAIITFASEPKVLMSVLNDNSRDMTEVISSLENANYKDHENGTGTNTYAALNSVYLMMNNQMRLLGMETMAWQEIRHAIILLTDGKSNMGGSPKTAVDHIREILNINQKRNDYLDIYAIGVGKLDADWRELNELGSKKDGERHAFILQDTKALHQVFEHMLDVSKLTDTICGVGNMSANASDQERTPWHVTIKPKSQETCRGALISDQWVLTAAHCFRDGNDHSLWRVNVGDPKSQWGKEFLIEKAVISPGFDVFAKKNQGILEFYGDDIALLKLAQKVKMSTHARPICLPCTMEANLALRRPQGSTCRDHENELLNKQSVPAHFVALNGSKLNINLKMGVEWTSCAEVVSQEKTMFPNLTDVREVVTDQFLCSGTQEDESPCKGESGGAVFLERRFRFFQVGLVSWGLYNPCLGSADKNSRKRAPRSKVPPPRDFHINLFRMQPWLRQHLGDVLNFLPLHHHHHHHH

Another experiment deals with T3, human C2 E433A (human, UniProt P06681 21-752).
T3 sequence: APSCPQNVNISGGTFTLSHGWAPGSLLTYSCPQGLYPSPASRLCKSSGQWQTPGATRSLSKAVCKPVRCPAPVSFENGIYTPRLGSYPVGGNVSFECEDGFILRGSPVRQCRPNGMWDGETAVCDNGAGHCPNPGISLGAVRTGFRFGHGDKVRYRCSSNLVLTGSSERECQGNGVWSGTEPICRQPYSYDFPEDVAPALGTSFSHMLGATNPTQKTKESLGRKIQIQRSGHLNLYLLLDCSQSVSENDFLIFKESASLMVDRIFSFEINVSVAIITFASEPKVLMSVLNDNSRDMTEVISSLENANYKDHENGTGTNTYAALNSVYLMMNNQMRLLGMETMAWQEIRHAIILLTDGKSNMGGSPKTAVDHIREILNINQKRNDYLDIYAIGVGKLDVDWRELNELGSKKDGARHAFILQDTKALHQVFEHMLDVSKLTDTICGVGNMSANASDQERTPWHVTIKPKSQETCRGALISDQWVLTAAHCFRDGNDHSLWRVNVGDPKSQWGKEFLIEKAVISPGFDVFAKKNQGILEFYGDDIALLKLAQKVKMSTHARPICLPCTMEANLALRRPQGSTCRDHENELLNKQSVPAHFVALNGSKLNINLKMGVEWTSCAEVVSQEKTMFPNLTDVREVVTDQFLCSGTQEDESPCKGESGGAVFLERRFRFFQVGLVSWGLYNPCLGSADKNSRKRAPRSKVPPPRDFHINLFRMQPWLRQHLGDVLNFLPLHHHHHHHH

The target of the next experiment is T4, human C2 G466A (human, UniProt P06681 21-752).
T4 sequence: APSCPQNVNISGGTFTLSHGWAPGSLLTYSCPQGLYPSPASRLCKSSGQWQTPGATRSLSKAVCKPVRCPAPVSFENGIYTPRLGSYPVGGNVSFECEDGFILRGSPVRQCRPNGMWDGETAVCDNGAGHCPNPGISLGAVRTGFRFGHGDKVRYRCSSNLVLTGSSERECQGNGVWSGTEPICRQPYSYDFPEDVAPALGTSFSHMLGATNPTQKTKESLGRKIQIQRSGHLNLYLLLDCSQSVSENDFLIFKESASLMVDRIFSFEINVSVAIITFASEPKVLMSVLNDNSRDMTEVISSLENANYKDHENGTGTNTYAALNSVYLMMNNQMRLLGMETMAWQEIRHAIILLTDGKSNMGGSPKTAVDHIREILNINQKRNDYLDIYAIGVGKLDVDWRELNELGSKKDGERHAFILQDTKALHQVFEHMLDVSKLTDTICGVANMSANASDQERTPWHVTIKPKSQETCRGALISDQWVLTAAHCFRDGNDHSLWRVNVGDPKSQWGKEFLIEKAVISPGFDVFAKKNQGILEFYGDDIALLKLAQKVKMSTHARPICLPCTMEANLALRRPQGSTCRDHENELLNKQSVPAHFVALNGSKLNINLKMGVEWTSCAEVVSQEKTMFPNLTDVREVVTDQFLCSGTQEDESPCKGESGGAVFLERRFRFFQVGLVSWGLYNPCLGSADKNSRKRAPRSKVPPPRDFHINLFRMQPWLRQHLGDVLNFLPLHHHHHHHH

B1: RF16-214 (antibody, V domains shown)
VH: EVQLLESGGGLVQPGGSLRLSCAASGFTFSWYQMMWVRQAPGKGLEWVSRIYPSGGGTAYADSVKGRFTISRDNSKNTLYLQMNSLRAEDTAVYYCARDAGYGDNWGQGTLVTVSS
VL: QSALTQPPSVSVSPGQTASITCSGDKLGEKYASWYQQKAGQSPVMVIYQDRKRPSGIPERFSGSNSGNTATLTISGTQAMDEADYYCQAWDTRAVVFGGGTKLTVLG
A word on the Kd: it is a measure of binding affinity in units of concentration. A low value points to a tighter complex. For B1, the Kd in the experiment with human C2 S278A was 34.5 nM; with human C2 V418A, 15.6 nM; in the experiment with human C2 E433A, 16.4 nM; with human C2 G466A it was 144 nM.
